Data as given in article PMC9687926, “High-Resolution Genetic Mapping Combined with Transcriptome Profiling Reveals That Both Target-Site Resistance and Increased Detoxification Confer Resistance to the Pyrethroid Bifenthrin in the Spider Mite Tetranychus urticae” (Biology, 2022).

Key:
purified protein [1] = substrate: CC(=O)Oc1ccc([N+](=O)[O-])cc1; experiment: purified protein; format: biochemical, Tetranychus urticae; details: 0.1 M phosphate buffer pH 7.5, 30 °C, 1 µg enzyme, 1% acetone
purified protein [2] = substrate: CC(=O)Oc1cccc2ccccc12; experiment: purified protein; format: biochemical, Tetranychus urticae; details: 0.1 M phosphate buffer pH 7.5, 1 µg enzyme, fast blue RR

B1: CCE58 (Tetranychus urticae) (protein)
chain: TISENVEPELTLSSGSIRGTSVDFRGVKVYQFLGIPFAEPPLNELRFQKPVSKKPWNGVLSVNKWGSACMQPVFPGYNTELHLNEDCLVLNVFTTEAAFQDKQNGKKHKLRPVMVWIHGGSFNYGSANTPDQHDGTPITGLKDVIIVSINYRLGSLGFLQLPEAGVPGNMGLWDQQLALKWVKDNIEHFGGDPNKVTIFGESAGSMSVSAHLVSPQSKGLFTNAIMQSGSIYDLDRWTQPGLVANFTSKIGCISDNYKSCLSNYRFGQFPEADRLTFWPTVDGEFLPHRAEELVSNHTVDPNINVLLGTNANEGAFMLLMKDMVTFHPLNPINLTIPHAKYIFGKLFGKTLIDFYSERYLASLSADDSDSIRLAVTQALGDSIFTCPTYATGRDLIASGVPNVYGYVQTQKPTHTLISVSGQAKWMSNIASHADTFPMVFGHPFNKLDKFKNEDVVLSFLMMDIWTKFAKDGKPPQISHQEWLPWNLSDPIPYPTMVLNSNKIGLIETKSAEFCAKNWPFPLENYYSMDSESGVYAEIE
notes: full-length MR-VL allele, signal peptide removed, codon-optimised, pPICZalphaA secretion in Pichia pastoris X-33, 6xHis tag, Ni-NTA purified, about 75 kDa on SDS-PAGE
For B1, the Km (purified protein [1]) was 0.379 (±0.028) mM and the Km (purified protein [2]) was 0.446 (±0.051) mM.
